Results from patent publication US20240141007A1.

Target: human FcRn (human) (UniProt P55899)
Test: SPR, hFcRn as ligand

Kd: 518 nM
Substance: Ipilimumab (antibody)
